From article PMC4158885 (The EMBO Journal, 2014)

Columns and labels:
[1] = biological target: the molecule itself; assay: crystal structure; ctPan3 PKC bound to ctPan2 343–458, P21 symmetry, two copies of the complex in the asymmetric unit, molecular replacement
[2] = biological target: T1, ctPan2 Δ353–375 (PID deletion in full-length ctPan2) (Chaetomium thermophilum, UniProt G0SAK8 1-1170, Δ353–375); assay: SEC; separately purified ctPan2 constructs and ctPan3 PKC dimer mixed 1:1 at 1 μM, 15 min at room temperature; Superdex 200 Increase 3.2/300 in 20 mM Tris pH 8.0, 500 mM NaCl, 2 mM TCEP; fractions on SDS–PAGE; conditions: both partners purified
T1 construct: Pan2, Chaetomium thermophilum, full-length context with an internal deletion of residues 353-375
T1 sequence (looked up): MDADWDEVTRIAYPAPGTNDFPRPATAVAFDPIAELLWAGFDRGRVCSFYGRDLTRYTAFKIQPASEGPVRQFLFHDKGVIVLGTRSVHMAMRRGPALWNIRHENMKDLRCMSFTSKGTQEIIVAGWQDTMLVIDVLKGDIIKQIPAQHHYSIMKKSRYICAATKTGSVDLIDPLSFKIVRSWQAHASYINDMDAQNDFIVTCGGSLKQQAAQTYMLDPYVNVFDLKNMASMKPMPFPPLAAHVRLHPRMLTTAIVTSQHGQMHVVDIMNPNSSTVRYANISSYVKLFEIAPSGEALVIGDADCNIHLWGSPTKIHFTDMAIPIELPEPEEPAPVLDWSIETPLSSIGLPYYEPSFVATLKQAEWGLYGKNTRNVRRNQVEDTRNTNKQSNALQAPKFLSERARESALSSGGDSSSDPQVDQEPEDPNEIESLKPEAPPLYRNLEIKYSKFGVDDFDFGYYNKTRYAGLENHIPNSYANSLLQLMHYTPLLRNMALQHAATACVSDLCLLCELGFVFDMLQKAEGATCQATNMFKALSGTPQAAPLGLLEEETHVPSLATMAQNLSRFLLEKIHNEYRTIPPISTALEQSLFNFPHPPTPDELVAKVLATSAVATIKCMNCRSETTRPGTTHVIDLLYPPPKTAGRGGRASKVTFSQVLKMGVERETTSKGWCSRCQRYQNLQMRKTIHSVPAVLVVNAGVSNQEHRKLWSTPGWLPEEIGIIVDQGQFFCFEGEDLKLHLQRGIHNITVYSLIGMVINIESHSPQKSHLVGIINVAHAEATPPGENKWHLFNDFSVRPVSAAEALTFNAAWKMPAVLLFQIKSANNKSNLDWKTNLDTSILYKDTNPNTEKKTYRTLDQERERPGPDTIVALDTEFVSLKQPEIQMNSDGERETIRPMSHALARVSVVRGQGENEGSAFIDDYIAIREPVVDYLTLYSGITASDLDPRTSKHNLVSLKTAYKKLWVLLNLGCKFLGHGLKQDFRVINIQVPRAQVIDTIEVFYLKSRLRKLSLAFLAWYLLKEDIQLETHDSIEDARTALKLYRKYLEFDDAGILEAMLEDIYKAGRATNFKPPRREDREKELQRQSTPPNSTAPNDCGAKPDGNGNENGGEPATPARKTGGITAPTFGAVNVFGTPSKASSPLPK

[3] = biological target: T2, ctPan2 Δ343–375 (PID deletion in full-length ctPan2) (Chaetomium thermophilum, UniProt G0SAK8 1-1170, Δ343–375); assay: as above; conditions: both partners purified
T2 sequence (looked up): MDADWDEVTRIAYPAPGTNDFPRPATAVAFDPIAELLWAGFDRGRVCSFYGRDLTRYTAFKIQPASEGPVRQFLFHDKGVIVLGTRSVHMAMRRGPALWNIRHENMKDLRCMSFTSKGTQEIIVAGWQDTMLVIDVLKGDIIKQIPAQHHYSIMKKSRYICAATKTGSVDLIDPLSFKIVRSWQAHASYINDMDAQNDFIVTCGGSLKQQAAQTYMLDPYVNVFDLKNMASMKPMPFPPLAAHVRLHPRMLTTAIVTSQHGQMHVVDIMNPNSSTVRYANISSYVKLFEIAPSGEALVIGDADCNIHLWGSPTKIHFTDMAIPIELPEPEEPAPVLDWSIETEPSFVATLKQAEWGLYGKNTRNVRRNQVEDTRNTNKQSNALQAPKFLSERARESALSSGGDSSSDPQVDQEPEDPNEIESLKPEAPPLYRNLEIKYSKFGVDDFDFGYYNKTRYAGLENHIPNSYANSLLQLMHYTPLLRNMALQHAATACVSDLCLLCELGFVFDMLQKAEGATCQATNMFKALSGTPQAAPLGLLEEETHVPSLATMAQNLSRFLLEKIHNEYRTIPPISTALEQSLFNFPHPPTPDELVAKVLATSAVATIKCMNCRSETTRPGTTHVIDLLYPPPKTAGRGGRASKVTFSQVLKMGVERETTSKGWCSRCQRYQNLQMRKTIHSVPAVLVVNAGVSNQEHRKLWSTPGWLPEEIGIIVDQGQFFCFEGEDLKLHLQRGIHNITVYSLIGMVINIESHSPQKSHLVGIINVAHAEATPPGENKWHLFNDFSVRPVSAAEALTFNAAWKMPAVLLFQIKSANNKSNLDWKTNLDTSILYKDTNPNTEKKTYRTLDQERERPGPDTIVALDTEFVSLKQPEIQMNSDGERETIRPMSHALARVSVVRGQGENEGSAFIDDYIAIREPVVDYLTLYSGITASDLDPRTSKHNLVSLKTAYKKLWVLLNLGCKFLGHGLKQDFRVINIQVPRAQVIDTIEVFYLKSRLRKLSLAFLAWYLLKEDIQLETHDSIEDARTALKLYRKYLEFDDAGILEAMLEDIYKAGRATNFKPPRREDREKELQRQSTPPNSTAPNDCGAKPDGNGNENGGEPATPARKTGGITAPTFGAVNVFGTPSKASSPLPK

binding result [2]: binds
binding result [3]: binds
B1: ctPan3 pseudokinase/C-terminal domain (PKC, residues 205–640), purified from E. coli (domain or fragment, Chaetomium thermophilum, UniProt G0S0Y3 205-640, looked up)
chain: RQELQPWQRATYDFFMPQNLREDLQKKQFATLQVIPNSGLPQLEHWHSLVPLDTSNRKNTSCFGYPSWVYKAQNSRNGRHYALRRLEGYRLTNEKAILNVMKDWKKIKNASIVTIHEVFTTREFGDSSLIFAYDFHPLSKTLQEHHFQPIHGNRYRPPPAVPENTIWGYICQIANALKTIHSNRLAARCLEPSKIILTDINRIRLSACAILDVVQFGMNSRSVVELQQEDFVKFGKLILSLATGTLPAHLNNIPAALETLGNKYSANLKSAVNWLLDTSSGETKTIEHFMTGIASQMTTFFDLALQDNDEKLFHLAREVENGRIARSLMKLLTILERGDYDGVPSWSETGDRYQLKLFRDYVFHRVDADGKPNLSIGHMLTCMSKLEAGVDENILLTSRDNETVFVLSYRELRQMYDRAFNELVKASKTGAPGANT
notes: Pan3, Chaetomium thermophilum, pseudokinase (242-497), coiled coil (499-538) and C-terminal domain (555-640), construct residues 205-640; The crystals of ctPan3 PKC alone (PDB 4CYI) were of Se-Met-labelled protein; also called ctPan3 PKC; ctPan3 PKC dimer; source: E. coli, purified (glutathione Sepharose)
binding result [1]: binds
